Measurements: patent US20180244769A1 (Ablynx, published 2018)

Experiments:
[1] = target: human P2X7 (hP2X7) (human) (UniProt Q99572); assay: flow cytometry on human peripheral blood lymphocytes of a single donor, CD4+ cells
[2] = target: human P2X7 (hP2X7) (human) (UniProt Q99572); assay: flow cytometry, HEK cells co-transfected with GFP and hP2X7, bound antibody detected with Alexa647 anti-mouse IgG; other quadrants: UL 0.5, LL 9, LR 19
[3] = target: human P2X7 (hP2X7) (human) (UniProt Q99572); assay: flow cytometry on human peripheral blood lymphocytes of a single donor, CD4- cells
mouse P2X7 (mP2X7) = target: T1, mouse P2X7 (mP2X7) (mus musculus, UniProt Q9Z1M0 1-595); assay: flow cytometry, HEK cells co-transfected with GFP and mP2X7, bound antibody detected with Alexa647 anti-mouse IgG; other quadrants: UL 64, LL 26, LR 5.5
T1 construct: Also used here for endogenous P2X7 on Yac-1 cells, primary mouse lymphocytes and macrophages
T1 chain: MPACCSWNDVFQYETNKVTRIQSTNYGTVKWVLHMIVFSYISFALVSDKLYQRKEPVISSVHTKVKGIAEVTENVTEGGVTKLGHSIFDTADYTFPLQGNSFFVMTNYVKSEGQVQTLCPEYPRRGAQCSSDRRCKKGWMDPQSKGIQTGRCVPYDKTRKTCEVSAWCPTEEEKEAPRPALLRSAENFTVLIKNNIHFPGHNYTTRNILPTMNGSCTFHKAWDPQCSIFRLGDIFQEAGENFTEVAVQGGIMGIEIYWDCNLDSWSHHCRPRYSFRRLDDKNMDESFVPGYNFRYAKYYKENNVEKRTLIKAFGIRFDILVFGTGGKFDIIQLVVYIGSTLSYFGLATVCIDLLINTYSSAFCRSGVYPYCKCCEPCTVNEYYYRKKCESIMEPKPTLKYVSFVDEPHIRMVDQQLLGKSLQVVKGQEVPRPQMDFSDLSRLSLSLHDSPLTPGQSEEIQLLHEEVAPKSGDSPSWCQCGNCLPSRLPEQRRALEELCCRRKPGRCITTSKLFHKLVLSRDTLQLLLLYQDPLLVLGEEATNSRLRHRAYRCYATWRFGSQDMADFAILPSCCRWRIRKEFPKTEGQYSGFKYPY

[4] = target: human P2X7 (hP2X7) (human) (UniProt Q99572); assay: flow cytometry of whole blood of one donor, gate on lymphocytes, Alexa647 conjugate with anti-CD4; blocked = pre-incubated with excess unlabelled Nb-Fc (legend: 3 ug each of 1c113-Fc and 3c23-Fc); lower quadrants 43 and 55
[5] = target: human P2X7 (hP2X7) (human) (UniProt Q99572); assay: flow cytometry of whole blood of one donor, gate on lymphocytes, Alexa647 conjugate with anti-CD4; unblocked = pre-incubated with control 1067-Fc; lower quadrants 32 and 33
[6] = target: human P2X7 (hP2X7) (human) (UniProt Q99572); assay: cell-based or functional assay
rat P2X7 (rP2X7) = target: T2, rat P2X7 (rP2X7) (Rattus norvegicus, UniProt Q64663 1-595); assay: flow cytometry, HEK cells co-transfected with GFP and rP2X7, bound antibody detected with Alexa647 anti-mouse IgG; other quadrants: UL 1, LL 7.5, LR 21
T2 sequence: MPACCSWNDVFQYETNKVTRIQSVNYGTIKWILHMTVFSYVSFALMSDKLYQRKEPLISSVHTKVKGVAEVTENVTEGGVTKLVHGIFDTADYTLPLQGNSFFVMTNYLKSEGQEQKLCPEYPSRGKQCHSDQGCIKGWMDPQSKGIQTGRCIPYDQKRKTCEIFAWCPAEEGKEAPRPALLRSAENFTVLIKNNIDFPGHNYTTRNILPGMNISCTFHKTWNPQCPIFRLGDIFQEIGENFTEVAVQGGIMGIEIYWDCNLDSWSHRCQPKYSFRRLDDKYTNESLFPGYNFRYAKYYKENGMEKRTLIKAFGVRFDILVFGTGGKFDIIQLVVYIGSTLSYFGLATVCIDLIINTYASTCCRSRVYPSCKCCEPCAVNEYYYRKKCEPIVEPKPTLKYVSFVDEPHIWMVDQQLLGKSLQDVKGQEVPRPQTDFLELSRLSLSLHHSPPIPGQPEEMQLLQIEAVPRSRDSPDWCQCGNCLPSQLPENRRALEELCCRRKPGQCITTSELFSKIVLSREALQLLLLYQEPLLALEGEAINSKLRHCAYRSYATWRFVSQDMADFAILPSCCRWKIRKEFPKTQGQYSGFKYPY

Chain of human P2X7 (hP2X7) (human) (Q99572 whole entry): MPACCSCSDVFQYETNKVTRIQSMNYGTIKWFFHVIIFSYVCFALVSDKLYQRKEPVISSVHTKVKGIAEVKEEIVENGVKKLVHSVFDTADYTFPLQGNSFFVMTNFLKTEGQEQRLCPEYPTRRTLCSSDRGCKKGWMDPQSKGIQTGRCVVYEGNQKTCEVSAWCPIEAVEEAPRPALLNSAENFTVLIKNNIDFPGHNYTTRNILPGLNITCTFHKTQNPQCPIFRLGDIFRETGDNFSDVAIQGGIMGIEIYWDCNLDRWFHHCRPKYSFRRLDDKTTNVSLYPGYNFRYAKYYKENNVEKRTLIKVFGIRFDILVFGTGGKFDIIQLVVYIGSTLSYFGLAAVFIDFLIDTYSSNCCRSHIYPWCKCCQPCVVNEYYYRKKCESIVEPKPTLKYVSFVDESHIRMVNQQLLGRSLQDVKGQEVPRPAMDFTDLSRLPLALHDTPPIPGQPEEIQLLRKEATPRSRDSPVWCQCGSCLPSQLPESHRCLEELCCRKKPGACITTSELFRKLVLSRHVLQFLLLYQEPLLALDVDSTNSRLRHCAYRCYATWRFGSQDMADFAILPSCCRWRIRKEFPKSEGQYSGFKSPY

mAb L4 (anti-hP2X7 mouse monoclonal antibody)
MFI [1]: 11
% of cells in the GFP+ / anti-mIgG A647+ quadrant (upper right) [2]: 72%
MFI [3]: 10
% of cells in the GFP+ / anti-mIgG A647+ quadrant (upper right) (mouse P2X7 (mP2X7)): 4.8%
% of lymphocytes in the CD4+ / AF647+ quadrant (upper right), blocked [4]: 0.6%
% of lymphocytes in the CD4- / AF647+ quadrant (upper left), blocked [4]: 0.9%
% of lymphocytes in the CD4+ / AF647+ quadrant (upper right), unblocked [5]: 22%
% of lymphocytes in the CD4- / AF647+ quadrant (upper left), unblocked [5]: 13%
IC50 [nM], blockade of L-selectin (CD62L) shedding in transfected HEK cells, 4 mM ATP [6]: > 19 nM
IC50 [ng/ml], blockade of L-selectin (CD62L) shedding in transfected HEK cells, 4 mM ATP [6]: > 2800 ng/mL
% of cells in the GFP+ / anti-mIgG A647+ quadrant (upper right) (rat P2X7 (rP2X7)): 70%
